Measured values published in patent EP4556018A1 (OSAKA UNIVERSITY, dated 2025).
Values belong to the binder of their own block, whether it stands above or below them.

What was measured:
[1] = target: T1, HDAC1 of mouse Treg cells (mouse, UniProt O09106 1-482); test: immunoprecipitation of endogenous Foxp3 from Ikzf1-expressing mouse Treg cells, Simple Western
T1 construct: also called HDAC1 protein

Flag-IkΔE5 = target: T2, Flag-IkΔE5 (Mus musculus, UniProt Q03267 1-517, limits assumed); test: co-immunoprecipitation with anti-Flag-M2 antibody from HEK293T lysate, Western blot with anti-c-Myc
T2 construct: Forcedly expressed in HEK293T cells; also called ΔE5 variant; Ikzf1ΔE5; not shown: Flag tag
T2 sequence (Q03267 other isoform, or with tags, fused parts or gaps mutant limits assumed): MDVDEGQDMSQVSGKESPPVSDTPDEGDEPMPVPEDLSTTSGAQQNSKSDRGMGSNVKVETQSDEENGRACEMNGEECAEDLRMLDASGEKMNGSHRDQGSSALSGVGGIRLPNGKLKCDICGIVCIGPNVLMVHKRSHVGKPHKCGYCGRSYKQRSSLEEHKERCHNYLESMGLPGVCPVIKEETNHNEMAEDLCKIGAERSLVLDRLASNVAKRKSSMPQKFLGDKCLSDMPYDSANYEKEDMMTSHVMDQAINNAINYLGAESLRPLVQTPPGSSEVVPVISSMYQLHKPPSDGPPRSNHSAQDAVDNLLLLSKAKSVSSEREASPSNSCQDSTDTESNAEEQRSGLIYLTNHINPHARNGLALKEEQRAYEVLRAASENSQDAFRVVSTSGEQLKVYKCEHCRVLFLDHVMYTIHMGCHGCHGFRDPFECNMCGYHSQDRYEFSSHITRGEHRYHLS

T1 sequence (O09106 whole entry): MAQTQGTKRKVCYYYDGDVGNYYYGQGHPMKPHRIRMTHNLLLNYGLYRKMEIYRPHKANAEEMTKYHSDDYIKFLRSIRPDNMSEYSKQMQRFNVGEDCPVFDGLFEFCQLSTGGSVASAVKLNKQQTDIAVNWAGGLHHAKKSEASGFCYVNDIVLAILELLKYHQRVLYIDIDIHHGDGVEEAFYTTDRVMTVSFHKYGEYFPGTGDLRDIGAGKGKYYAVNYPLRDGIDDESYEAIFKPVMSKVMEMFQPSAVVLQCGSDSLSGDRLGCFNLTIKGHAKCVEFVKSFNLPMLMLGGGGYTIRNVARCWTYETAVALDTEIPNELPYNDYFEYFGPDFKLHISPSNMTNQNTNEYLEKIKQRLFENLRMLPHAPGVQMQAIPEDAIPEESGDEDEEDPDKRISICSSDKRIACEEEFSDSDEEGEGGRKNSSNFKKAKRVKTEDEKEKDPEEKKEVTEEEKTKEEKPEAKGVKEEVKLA

binding result [1]: binds
B1: endogenous Foxp3 of mouse Treg cells (other, UniProt Q99JB6 1-429, looked up)
chain: MPNPRPAKPMAPSLALGPSPGVLPSWKTAPKGSELLGTRGSGGPFQGRDLRSGAHTSSSLNPLPPSQLQLPTVPLVMVAPSGARLGPSPHLQALLQDRPHFMHQLSTVDAHAQTPVLQVRPLDNPAMISLPPPSAATGVFSLKARPGLPPGINVASLEWVSREPALLCTFPRSGTPRKDSNLLAAPQGSYPLLANGVCKWPGCEKVFEEPEEFLKHCQADHLLDEKGKAQCLLQREVVQSLEQQLELEKEKLGAMQAHLAGKMALAKAPSVASMDKSSCCIVATSTQGSVLPAWSAPREAPDGGLFAVRRHLWGSHGNSSFPEFFHNMDYFKYHNMRPPFTYATLIRWAILEAPERQRTLNEIYHWFTRMFAYFRNHPATWKNAIRHNLSLHKCFVRVESEKGAVWTVDEFEFRKKRSQRPNKCSNPCP
notes: Immunoprecipitated with anti-Foxp3 antibody from Treg cell lysates

binding result (Flag-IkΔE5): no binding
B2: Myc-Foxp3 (other, UniProt Q99JB6 1-429, looked up)
chain: B1 chain
notes: Forcedly expressed in HEK293T cells; not shown: Myc tag
